Source: US20230139680A1 (TEXAS A AND M UNIVERSITY SYSTEM, published 2023)
Starred links: 1 amine or outer side, 2 acyl side, 3 side chain; linkers in the order of their positions; H or OH if unused. Positions of bridges follow the written chain, without caps; N, C: chain ends. Non-standard residues stand in square brackets, D forms with d. No end group written: not given here. *: point of attachment. AcrK = N6-acryloyl-L-lysine, C=CC(=O)NCCCC[C@H](N[*:1])C(=O)[*:2]; 5FAM = O=C1OC2(c3ccc(O)cc3Oc3cc(O)ccc32)c2ccc(C(=O)*)cc21

T1: HDAC8 (UniProt Q9BY41 1-377)
T1 construct: Expressed in E. coli BL21(DE3) CodonPlus, purified on Ni-NTA and Q Sepharose; also called HAC8; histone deacetylase 8; not shown: C-terminal TEV site and His6 tag by the plasmid's name (pHD4-HDAC8-TEV-His6)
T1 sequence (looked up): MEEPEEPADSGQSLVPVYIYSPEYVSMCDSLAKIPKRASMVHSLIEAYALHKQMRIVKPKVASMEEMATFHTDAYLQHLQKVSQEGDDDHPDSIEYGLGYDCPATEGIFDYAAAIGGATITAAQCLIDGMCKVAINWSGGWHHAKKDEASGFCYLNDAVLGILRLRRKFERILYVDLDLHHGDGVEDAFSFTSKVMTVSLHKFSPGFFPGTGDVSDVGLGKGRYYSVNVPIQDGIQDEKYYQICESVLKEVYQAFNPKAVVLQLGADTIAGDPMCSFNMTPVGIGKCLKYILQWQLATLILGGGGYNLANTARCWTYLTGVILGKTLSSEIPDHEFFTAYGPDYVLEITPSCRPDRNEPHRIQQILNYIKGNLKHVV

B1: 5-FAM-conjugated LinH8a (peptide)
peptide: CQSLWMNKK(5FAM)-NH2
modifications: N-terminus assumed
SMILES: CSCC[C@H](NC(=O)[C@H](Cc1c[nH]c2ccccc12)NC(=O)[C@H](CC(C)C)NC(=O)[C@H](CO)NC(=O)[C@H](CCC(N)=O)NC(=O)[C@@H](N)CS)C(=O)N[C@@H](CC(N)=O)C(=O)N[C@@H](CCCCN)C(=O)N[C@@H](CCCCNC(=O)c1ccc2c(c1)C(=O)OC21c2ccc(O)cc2Oc2cc(O)ccc21)C(N)=O
notes: Linear counterpart with plain Lys in place of AcrK; also called linear counterpart of 5FAM-CycH8a

Key:
HDAC8 [1] = biological target: T1, HDAC8; test: fluorescence polarization, 25 nM 5-FAM peptide, protein titrated
Procedure: (§1) The fluorescence polarization was measured in a microplate reader at Ex/Em=490 nm/520 nm.

HDAC8 [2] = biological target: T1, HDAC8; test: fluorescence polarization (summary sentence of the example)
Procedure: as §1

HDAC8 [3] = biological target: T1, HDAC8; test: cell-based or functional assay

Binder	Kd (HDAC8 [1]) [µM]	fold stronger affinity than its linear counterpart (HDAC8 [2]) [fold]	IC50 of inhibition of HDAC8 deacetylation of Boc-AcK-AMC (fluorogenic, trypsin-coupled activity assay) (HDAC8 [3]) [µM]
CQSLWMN[AcrK]K(5FAM)-NH2 (bridge 1-8; not fully specified (bridges), also called 5FAM-CycH8a; 5FAM-cycH8a) [5-FAM-conjugated CycH8a]	7.1	6	9.7
B1	> 50		
